Experimental findings from patent US20230122364A1 are described below.

The target in assay [1] is SARS-CoV S2Pecto antigen (SARS-CoV) (UniProt P59594). In words: ELISA on coated SARS-CoV S2Pecto.
Assay [2] has as its target SRBD subdomain of SARS-CoV-2 S protein (SARS-CoV-2) (UniProt P0DTC2). In words: ELISA on coated SRBD. On the technique in general: In an ELISA, binding on a coated surface is turned into a signal by an enzyme label.

For orientation: EC50 means the concentration needed to bring the measured effect to its halfway point. Consider “rCR3022 (recombinant form of the cross-reactive SARS-CoV SRBD mAb CR3022) (antibody)”, for which the figures for the concentration for a half-maximal effect (EC50) in assay [1] and in assay [2] were 5.2 ng/mL and 1.1 ng/mL, respectively.
